For 80 sequences, Kd results are on record in patent US20160177307.

pKd: −log10 of the molar value.

This data set concerns the target PDGF-BB (platelet-derived growth factor BB) (Homo sapiens) (UniProt P01127). Kind of data set: filter.
[1] abbreviates: all Z are BndU, rest DNA, SB18T, 37 C.
Where [2] appears, read: all P are NapdU, rest DNA, SB18T, 37 C.

PDGF-BB (platelet-derived growth factor BB) (Homo sapiens), sequence (P01127 82-190): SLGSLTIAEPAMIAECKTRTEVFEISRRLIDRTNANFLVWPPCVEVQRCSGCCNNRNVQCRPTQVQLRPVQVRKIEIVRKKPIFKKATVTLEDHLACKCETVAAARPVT

The term pKd denotes the Kd on a negative log10 scale, so that one unit is a factor of ten. Regarding “ACACGCGTTTATAGCGTCAACCCGAGTGAACA [4149-8_19]”, the pKd under setting [1] is 7.13.
“ACAGCATGTATGCACATCTAGAGGCTACCCAGTGAA [5169-4_14]”: under setting [2], the negative-log Kd (pKd) is 9.77.
Sequence “ACTACGTTACACGCGTTTATAGCGTCAACCCGAGTGAACA [4149-8_15]” showed a pKd (Bn-dU) of under 8.00.
The sequence “ATCTCTTACGACTACGTTACACGCGTTTATAGCGTC [4149-8_10]” gave a negative-log Kd (pKd) under setting [1] of 10.30.
Turning to “ATCTCTTACGACTACGTTACACGCGTTTATAGCGTCAA [4149-8_9]”, the pKd under setting [1] was 10.52.
“ATCTCTTACGACTACGTTACACGCGTTTATAGCGTCAACCCG [4149-8_7]” gave a pKd under setting [1] of 10.70.
Still for that read-out and setting: then “ATCTCTTACGACTACGTTACACGCGTTTATAGCGTCAACCCGAGTG [4149-8_5]”, with 10.70.
Consider “ATCTCTTACGACTACGTTACACGCGTTTATAGCGTCAACCCGAGTGAACA [4149-8_2]”, for which the negative-log Kd (pKd) (all Z are BndU (5-(N-benzylcarboxamide)-2'-deoxyuridine), rest DNA, SB18T, 37 C, Zorbax partition) is 10.30.
For CACAGCATGTATGCACATCT [5169-4_60], for the setting “C3 spacer at 2, NapdU at 9,11,13,19,21, C3 spacer walk”, the negative logarithm of the Kd (pKd) is 7.57.
“CAGCATGTATGCACATCTAGAGGCTACCCAGTGAATGAGGA [5169-4_6]” gave a negative-log Kd (pKd) under setting [2] of 7.17.
For “CCTCGACAGCATGTATGCACATCTAGAGGCTACCCAGTGAATGAGGA [5169-4_4]”, for the setting “NapdU at P, SB18T, 37 C”, the pKd is 10.57.
For the sequence CGAAGCATGTATGCACATCT [5169-4_62], under “C3 spacer at 4, NapdU at 9,11,13,19,21, C3 spacer walk”, the negative logarithm of the Kd (pKd) is 7.38.
For CGACACATGTATGCACATCT [5169-4_64], where the note is “C3 spacer at 6, NapdU at 9,11,13,19,21, C3 spacer walk”, the pKd is 10.27.
With CGACAGATGTATGCACATCT [5169-4_65], the pKd (NapdU at P, C3 spacer at 7) is 10.13.
CGACAGCATGTATCACATCT [5169-4_72] had a pKd (C3 spacer at 14, NapdU at 9,11,13,19,21, C3 spacer walk) of 6.64.
As for CGACAGCATGTATGACATCT [5169-4_73], the pKd (C3 spacer at 15, NapdU at 9,11,13,19,21, C3 spacer walk) is 10.82.
The sequence CGACAGCATGTATGCAATCT [5169-4_75] had a pKd (NapdU at P, C3 spacer at 17) of 9.85.
In turn, CGACAGCATGTATGCACATCT [5169-4_33] gave a negative-log Kd (pKd) (NapdU at P, 2'-OMe 1) of 10.57.
Under “NapdU at P, 2'-OMe 4”, CGACAGCATGTATGCACATCT [5169-4_34] had a negative-log Kd (pKd) of 10.48.
As to CGACAGCATGTATGCACATCT [5169-4_35], the negative logarithm of the Kd (pKd) (NapdU at P, 2'-OMe 7) was 10.80.
In turn, CGACAGCATGTATGCACATCT [5169-4_36] showed a negative logarithm of the Kd (pKd) (NapdU at P, 2'-OMe 15) of 10.55.
Where the note is “NapdU at P, 2'-OMe 17”, CGACAGCATGTATGCACATCT [5169-4_37] showed a pKd of 10.39.
The sequence CGACAGCATGTATGCACATCT [5169-4_38] showed a pKd (NapdU at P, 2'-OMe 20) of 10.66.
The sequence CGACAGCATGTATGCACATCT [5169-4_39] gave a pKd (NapdU at P, 2'-OMe 2) of 10.24.
Turning to CGACAGCATGTATGCACATCT [5169-4_40], where the note is “NapdU at P, 2'-OMe 6”, the negative logarithm of the Kd (pKd) was 10.62.
CGACAGCATGTATGCACATCT [5169-4_41] showed a pKd (NapdU at P, 2'-OMe 10) of 10.01.
Consider CGACAGCATGTATGCACATCT [5169-4_42], for which the pKd (2'-OMe G14, NapdU at 9,11,13,19,21, 2'-OMe substitution) is 11.16.
Sequence CGACAGCATGTATGCACATCT [5169-4_43] had a negative logarithm of the Kd (pKd) (NapdU at P, 2'-OMe 3) of 9.80.
Take CGACAGCATGTATGCACATCT [5169-4_44]: the negative logarithm of the Kd (pKd) (2'-OMe A5, NapdU at 9,11,13,19,21, 2'-OMe substitution) is 9.28.
CGACAGCATGTATGCACATCT [5169-4_45] gave a pKd (2'-OMe A8, NapdU at 9,11,13,19,21, 2'-OMe substitution) of 9.03.
The sequence CGACAGCATGTATGCACATCT [5169-4_46] gave a negative logarithm of the Kd (pKd) (NapdU at P, 2'-OMe 12) of 10.03.
Sequence CGACAGCATGTATGCACATCT [5169-4_47] had a pKd (NapdU at P, 2'-OMe 16) of 10.80.
Turning to CGACAGCATGTATGCACATCT [5169-4_48], the negative logarithm of the Kd (pKd) (NapdU at P, 2'-OMe 18) is 10.85.
Regarding CGACAGCATGTATGCACATCT [5169-4_49], the negative logarithm of the Kd (pKd) (NapdU at P, 2'-OMe 9) is 9.28.
CGACAGCATGTATGCACATCT [5169-4_50] had a negative logarithm of the Kd (pKd) (NapdU at P, 2'-OMe 11) of 10.33.
Sequence CGACAGCATGTATGCACATCT [5169-4_51] had a pKd (NapdU at P, 2'-OMe 13) of 9.49.
In turn, CGACAGCATGTATGCACATCT [5169-4_52] gave a negative logarithm of the Kd (pKd) (NapdU at P, 2'-OMe 19) of 9.51.
As to CGACAGCATGTATGCACATCT [5169-4_53], the negative logarithm of the Kd (pKd) (NapdU at P, 2'-OMe 21) was 10.66.
With CGACAGCATGTATGCACATCT [5169-4_54], under “NapdU at 11,13,19,21, dT at 9, dT substitution”, the pKd was 7.36.
For the setting “NapdU at 9,13,19,21, dT at 11, dT substitution”, CGACAGCATGTATGCACATCT [5169-4_55] gave a pKd of 8.11.
With CGACAGCATGTATGCACATCT [5169-4_57], the negative-log Kd (pKd) (NapdU at 9,11,13,21, dT at 19, dT substitution) is 6.92.
Regarding CGACAGCATGTATGCACATCT [5169-4_80], for the setting “NapdU at P, 2'-OMe 7,16,18”, the pKd is 11.21.
CGACAGCATGTATGCACATCT [5169-4_81] had a pKd (NapdU at P, 2'-OMe 7,14,16,18) of 11.31.
As to CGACAGCATGTATGCACATCT [5169-4_82], where the note is “NapdU at 9,11,13,19, 2'-OMe at G6,C7,G14,A16,A18,C20 and 2'-OMe-NapU21, SB18T, 37 C”, the negative logarithm of the Kd (pKd) was 11.80.
For the sequence CGACAGCATGTATGCACATCT [5169-4_83], the pKd (NapdU at P, 2'-OMe 1,6,7,14,15,16,18,20,21) was 11.68.
As for CGACAGCATGTATGCACATCT [5169-4_86], the pKd (NapdU at P, 2'-OMe 1,2,4,6,7,11,14-18,20,21) was 10.19.
Under “NapdU at P, 2'-OMe 1,7,15,16,18,20,21”, CGACAGCATGTATGCACATCT [5169-4_92] had a negative-log Kd (pKd) of 11.28.
Sequence CGACAGCATGTATGCACATCT [5169-4_105] gave a pKd (NapdU at P, 2'-OMe 6,18,20) of 11.21.
The sequence CGACAGCATGTATGCACATCT [5169-4_106] gave a pKd (NapdU at P, 2'-OMe 1,18,20) of 10.80.
In turn, CGACAGCATGTATGCACATCT [5169-4_107] had a pKd (NapdU at P, 2'-OMe 1,6,18) of 10.89.
CGACAGCATGTATGCACATCT [5169-4_108] showed a pKd (NapdU at P, 2'-OMe 1,6,14) of 10.92.
In turn, CGACAGCATGTATGCACATCT [5169-4_109] showed a negative-log Kd (pKd) (NapdU at P, 2'-OMe 1,6,16) of 10.96.
With CGACAGCATGTATGCACATCT [5169-4_110], the negative logarithm of the Kd (pKd) (NapdU at P, 2'-OMe 1,14,16) is 11.30.
For the sequence CGACAGCATGTATGCACATCT [5169-4_111], the pKd (NapdU at P, 2'-OMe 7,14,16) was 11.32.
In the case of CGACAGCATGTATGCACATCT [5169-4_113], under “NapdU at P, 2'-OMe 7,16,21”, the pKd is 10.92.
In the case of CGACAGCATGTATGCACATCT [5169-4_114], the negative logarithm of the Kd (pKd) (NapdU at P, 2'-OMe 7,17,21) is 10.42.
Take CGACAGCATGTATGCACATCT [5169-4_115]: the pKd (NapdU at P, 2'-OMe 4,7,21) was 10.62.
The sequence CGACAGCATGTATGCACATCT [5169-4_116] showed a pKd (NapdU at P, 2'-OMe 4,17,21) of 10.03.
CGACAGCATGTATGCACATCT [5169-4_117] had a negative logarithm of the Kd (pKd) (NapdU at P, 2'-OMe 4,12,17) of 9.15.
Take CGACAGCATGTATGCACATCT [5169-4_118]: for the setting “NapdU at P, 2'-OMe 2,4,17”, the negative-log Kd (pKd) is 9.25.
Regarding CGACAGCATGTATGCACATCT [5169-4_123], where the note is “NapdU at P, 2'-OMe 1,20,21”, the pKd is 10.52.
In turn, CGACAGCATGTATGCACATCT [5169-4_124] showed a pKd (NapdU at P, 2'-OMe 5,20,21) of 9.22.
For the sequence CGACAGCATGTATGCACATCT [5169-4_125], the negative-log Kd (pKd) (NapdU at P, 2'-OMe 1,5,20) is 9.00.
In turn, CGACAGCATGTATGCACATCT [5169-4_127] gave a negative logarithm of the Kd (pKd) (NapdU at P, 2'-OMe 16,17,18) of 11.00.
On to CGACAGCATGTATGCACATCT [5169-4_128], for which the pKd (NapdU at P, 2'-OMe 13,14,15) is 10.00.
CGACAGCATGTATGCACATCT [5169-4_130]: the negative-log Kd (pKd) (NapdU at P, 2'-OMe 7,8,9) was 8.35.
On to CGACAGCATGTATGCACATCT [5169-4_131], for which the negative-log Kd (pKd) (NapdU at P, 2'-OMe 4,5,6) was 9.19.
Under “NapdU at P, 2'-OMe 1,2,3”, CGACAGCATGTATGCACATCT [5169-4_132] had a negative-log Kd (pKd) of 9.38.
CGACAGCATGTATGCACATCT [5169-4_150]: the pKd (as 5169-4_146, PS 2, 3' inverted dT) was 10.89.
On to CGACAGCATGTATGCACATCT [5169-4_151], for which the pKd (as 5169-4_146 plus PS 3' of A3, 3'-idT) was 11.22.
In the case of CGACAGCATGTATGCACATCT [5169-4_152], the pKd (as 5169-4_146, PS 5, 3' inverted dT) is 10.82.
As for CGACAGCATGTATGCACATCT [5169-4_153], the pKd (as 5169-4_146, PS 8, 3' inverted dT) is 10.89.
Consider CGACAGCATGTATGCACATCT [5169-4_154], for which the pKd (as 5169-4_146 plus PS 3' of P9, 3'-idT, 1.8-fold weaker than parent) was 10.59.
Under “as 5169-4_146, PS 10, 3' inverted dT”, CGACAGCATGTATGCACATCT [5169-4_155] gave a pKd of 11.16.
Under “as 5169-4_146, PS 11, 3' inverted dT”, CGACAGCATGTATGCACATCT [5169-4_156] showed a pKd of 11.11.
As to CGACAGCATGTATGCACATCT [5169-4_157], under “as 5169-4_146, PS 12, 3' inverted dT”, the pKd is 10.74.
For CGACAGCATGTATGCACATCT [5169-4_158], the pKd (as 5169-4_146, PS 13, 3' inverted dT) was 10.72.
On to CGACAGCATGTATGCACATCT [5169-4_159], for which the negative-log Kd (pKd) (as 5169-4_146, PS 19, 3' inverted dT) was 10.82.
Under “as 5169-4_146, PS 1, 3' inverted dT”, CGACAGCATGTATGCACATCT [5169-4_172] gave a negative logarithm of the Kd (pKd) of 10.89.
The sequence CGACAGCATGTATGCACATCT [5169-4_173] showed a pKd (as 5169-4_146, PS 4, 3' inverted dT) of 11.04.
